Laboratory results as given in article doi:10.1101/2024.05.17.594718 (bioRxiv, 2024).

Molecular target: LysP-GFP (Pseudomonas aeruginosa PAO1 LysP fused to GFP-His8) (Pseudomonas aeruginosa strain PAO1, UniProt Q9HVG3)
Assay: GFP thermal shift

B1: nanobody Nb5755 (VHH)
VHH: QVQLQESGGGLVQGGSLRLSCAASGRTFSIYGMAWVRQASGKEREFVAAMPRGGGTTNYADSVKGRFSISRDNAKNTVDLQMNSLKPEDTAVYYCVADRGFTLRLGIQHDYWGQGTQVTVSS
- increase in melting temperature: 20 °C
